# B1: REGN10987 Fab (Fab, V domains shown)
# VH: QVQLVESGGGVVQPGRSLRLSCAASGFTFSNYAMYWVRQAPGKGLEWVAVISYDGSNKYYADSVKGRFTISRDNSKNTLYLQMNSLRTEDTAVYYCASGSDYGDYLLVYWGQGTLVTVSS
# VL: QSALTQPASVSGSPGQSITISCTGTSSDVGGYNYVSWYQQHPGKAPKLMIYDVSKRPSGVSNRFSGSKSGNTASLTISGLQSEDEADYYCNSLTSISTWVFGGGTKLTVL
# Target: 6P stabilised SARS-CoV-2 spike protein (SARS-CoV-2, original (Wuhan) strain, UniProt P0DTC2, stabilised)
# Experiment: cryo-EM structure
# Settings: both partners purified
binder,measurement,value
B1,binding result,binds
